# Experimental data as given in patent US20060051835A1 (published 2006).
# Target: T1, FLAG-tagged Parkin (Wild type) (human, UniProt O60260 1-465)
# T1 construct: whole, on cells; Plasmid described in Imai et al. 2000; also called FLAG-Parkin; the full-length Parkin; not shown: FLAG tag
# Assay: co-immunoprecipitation from 293T cells (FLAG-IP, anti-Myc Western blot)
# From the text: We have previously reported that the expression of Parkin is increased due to the stress induced by misfolded proteins, so as to have an effect of suppressing cell death resulting from the stress induced by misfolded proteins (Imai, Y. et al. (2000) J Biol Chem 275, 35661-35664). Against endoplasmic reticulum stress, a series of unfolded protein responses (UPR) including endoplasmic reticulum (ER)-associated degradation (ERAD), which regulate gene expression, are induced (Travers, K. J. et al., (2000) Cell 101, 249-258). ERAD degrades misfolded membrane proteins or secretory proteins with the degradation system within the cytoplasm (Plemper, R. K. et al., (1999) Trends Biochem Sci 24, 266-270). ERAD substrate was transported back through the membrane of the endoplasmic reticulum to the cytoplasm, in which it is ubiquitinated and degraded by the action of UBC6, UBC7, proteasome complex and the like (Biederer, T. et al., (1997) Science 278, 1806-1809; Bordallo, J. et al., (1998) Mol Biol Cell 9, 209-222; Gilon, T. et al., (2000) Mol Cell Biol 20, 7214-7219; Wilhovsky, S. et al., (2000) Mol Biol Cell 11, 1697-1708). […] Immunoprecipitates (FLAG-IP) immunoprecipitated with anti-FLAG monoclonal antibodies and soluble total cell extract (Total lysate) were analyzed by Western blotting (WB) using anti-FLAG or anti-Myc antibodies.
# T1 sequence (O60260 whole entry): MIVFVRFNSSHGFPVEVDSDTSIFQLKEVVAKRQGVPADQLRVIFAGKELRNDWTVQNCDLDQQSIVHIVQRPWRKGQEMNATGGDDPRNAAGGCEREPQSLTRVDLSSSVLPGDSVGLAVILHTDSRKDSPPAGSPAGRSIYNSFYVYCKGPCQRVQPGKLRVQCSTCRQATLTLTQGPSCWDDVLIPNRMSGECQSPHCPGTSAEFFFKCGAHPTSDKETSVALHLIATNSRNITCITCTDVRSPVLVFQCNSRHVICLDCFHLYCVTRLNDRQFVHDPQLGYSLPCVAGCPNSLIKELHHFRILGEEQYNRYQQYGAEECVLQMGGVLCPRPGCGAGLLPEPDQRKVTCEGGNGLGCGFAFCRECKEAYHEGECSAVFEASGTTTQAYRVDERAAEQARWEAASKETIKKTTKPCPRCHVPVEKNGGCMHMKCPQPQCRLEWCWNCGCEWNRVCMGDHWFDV
row,Binder,binding result
1,"Myc-E2-25K (enzyme, human, UniProt P61086 2-200, looked up, whole, on cells; not shown: Myc tag) ANIAVQRIKREFKEVLKSEETSKNQIKVDLVDENFTELRGEIAGPPDTPYEGGRYQLEIKIPETYPFNPPKVRFITKIWHPNISSVTGAICLDILKDQWAAAMTLRTVLLSLQALLAAAEPDDPQDAVVANQYKQNPEMFKQTARLWAHVYAGAPVSSPEYTKKIENLCAMGFDRNAVIVALSSKSWDVETATELLLSN",no binding
2,"Myc-UBCH6 (enzyme, UniProt P51965 2-193, looked up, whole, on cells; not shown: Myc tag) SDDDSRASTSSSSSSSSNQQTEKETNTPKKKESKVSMSKNSKLLSTSAKRIQKELADITLDPPPNCSAGPKGDNIYEWRSTILGPPGSVYEGGVFFLDITFTPEYPFKPPKVTFRTRIYHCNINSQGVICLDILKDNWSPALTISKVLLSICSLLTDCNPADPLVGSIATQYMTNRAEHDRMARQWTKRYAT",no binding
